Residue numbers refer to the chain shown, from its start. Names and notes keep the numbering of the source.
Tests used:
crystal structure = target: the molecule itself; experiment: crystal structure
[1] = target: T1, HSV-1 UL31 full length (1-306) with R229L (SUP_UL31) (herpes simplex virus 1 (HSV-1), UniProt P10215 1-306, R229L); experiment: cryo-EM structure
T1 sequence: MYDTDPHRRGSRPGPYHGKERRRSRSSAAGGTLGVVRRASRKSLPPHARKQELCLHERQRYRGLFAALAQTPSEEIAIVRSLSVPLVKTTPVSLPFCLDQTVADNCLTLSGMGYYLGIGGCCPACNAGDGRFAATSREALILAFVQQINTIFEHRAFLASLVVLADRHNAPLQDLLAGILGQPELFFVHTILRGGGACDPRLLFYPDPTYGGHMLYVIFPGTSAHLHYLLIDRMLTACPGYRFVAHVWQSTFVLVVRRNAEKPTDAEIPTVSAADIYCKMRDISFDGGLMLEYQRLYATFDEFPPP

cryo-EM structure = target: the molecule itself; experiment: cryo-EM structure
[2] = target: T2, HSV-1 UL31 full length (1-306), wild type (herpes simplex virus 1 (HSV-1), UniProt P10215 1-306); experiment: SEC
T2 sequence: T1 sequence with L229R

[3] = target: T1, HSV-1 UL31 full length (1-306) with …; experiment: SEC
[4] = target: T2, HSV-1 UL31 full length (1-306), wild …; experiment: cryo-EM structure

B1: NEC185Δ50-SUP_(UL31) heterodimer (UL31 51-306 R229L with UL34 15-185) (complex)
chain 1: QELCLHERQRYRGLFAALAQTPSEEIAIVRSLSVPLVKTTPVSLPFCLDQTVADNCLTLSGMGYYLGIGGCCPACNAGDGRFAATSREALILAFVQQINTIFEHRAFLASLVVLADRHNAPLQDLLAGILGQPELFFVHTILRGGGACDPRLLFYPDPTYGGHMLYVIFPGTSAHLHYLLIDRMLTACPGYRFVAHVWQSTFVLVVRRNAEKPTDAEIPTVSAADIYCKMRDISFDGGLMLEYQRLYATFDEFPPP
chain 2: AFEGLVQRIRLIVPSTLRGGDGEAGPYSPSSLPSRCAFQFHGHDGSDESFPIEYVLRLMNDWAEVPCNPYLRIQNTGVSVLFQGFFHRPHNAPGGAITPERTNVILGSTETTGLSLGDLDTIKGRLGLDARPMMASMWISCFVRMPRVQLAFRFMGPEDAGRTRRILCRAA
Crystal structure
  stoichiometry N: 6

B2: HSV-1 UL31 residues 51-306 with R229L (SUP_UL31), crystallization construct (domain or fragment)
chain: B1 chain 1
Crystal structure
  binding result: binds

B3: NEC185Δ50-DN_(UL34)/SUP_(UL31) heterodimer (UL31 51-306 R229L with UL34 15-185 D35A/E37A) (complex)
chain 1: B1 chain 1
chain 2: B1 chain 2 with D21A, E23A
Crystal structure
  binding result: binds

B4: HSV-1 UL34 residues 1-220 with D35A/E37A (DN_UL34) (domain or fragment)
chain: MAGLGKPYTGHPGDAFEGLVQRIRLIVPSTLRGGAGAAGPYSPSSLPSRCAFQFHGHDGSDESFPIEYVLRLMNDWAEVPCNPYLRIQNTGVSVLFQGFFHRPHNAPGGAITPERTNVILGSTETTGLSLGDLDTIKGRLGLDARPMMASMWISCFVRMPRVQLAFRFMGPEDAGRTRRILCRAAEQAITRRRRTRRSREAYGAEAGLGVAGTGFRARGD
[1]
  binding result: binds

B5: NEC220-SUP_(UL31) (UL31 1-306 R229L with UL34 1-220) (complex)
chain 1: T1 sequence
chain 2: B4 chain with A35D, A37E
cryo-EM structure
  binding result: binds

B6: NEC220, wild-type soluble HSV-1 nuclear egress complex (UL31 1-306 with UL34 1-220) (complex)
chain 1: T1 sequence with L229R
chain 2: B4 chain with A35D, A37E
cryo-EM structure
  binding result: binds

B7: NEC220-DN_(UL34)/SUP_(UL31) (UL31 1-306 R229L with UL34 1-220 D35A/E37A) (complex)
chain 1: T1 sequence
chain 2: B4 chain
cryo-EM structure
  binding result: binds

B8: HSV-1 UL34 residues 1-220 with R139A (domain or fragment)
chain: B4 chain with A35D, A37E, R139A
[2]
  binding result: binds

B9: HSV-1 UL34 residues 1-220 with K137A/R139A (domain or fragment)
chain: B4 chain with A35D, A37E, K137A, R139A
[2]
  binding result: binds
[3]
  binding result: binds

B10: HSV-1 UL34 residues 1-220 with K137A (domain or fragment)
chain: B4 chain with A35D, A37E, K137A
[2]
  binding result: binds
[3]
  binding result: binds

B11: HSV-1 UL34 residues 1-220, wild type (domain or fragment)
chain: B4 chain with A35D, A37E
[4]
  binding result: binds

— publication doi:10.1101/2023.06.22.546118 (bioRxiv, 2023)
